The source of these data is the nanobody polyreactivity screen of Harvey et al. (2022).

The nature of the data set: yeast display, Sf9 membrane polyspecificity reagent, FACS + sequencing; frameworks hold sequencing errors. Summed up:
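Synthetic nanobody libraries on Saccharomyces cerevisiae BJ5465 were galactose-induced for 36–48 hours, stained 1 hour at 4 °C with 10% biotinylated, detergent-solubilized Sf9 membrane reagent and enriched on streptavidin microbeads. FACS then separated cells into low and high (top ~1%) gates by anti-HA (expression) and streptavidin (reagent binding) fluorescence. Genes were colony-PCR amplified, MiSeq 2 × 250 sequenced and CDR-length filtered. A clone's polyreactivity label is that of its gate of origin.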
Take “QVQLVESGGGLVQAGGSLRLSCAASGSTFFRYAMGWYRQAPGKEREFVAAITSSGGNTYYADSVKGRFTISRDNAKNTVYFQMNSLKPEDTAVYYCAAVWYSPYVKYNYWGQGTQVTVSS”: the “polyreactivity (PSR sort gate)” value is recorded as “low polyreactivity”.

Turning to “QVQLVDSGGGLVQAGGSLRLSCAASGRIFRYNTMGWYRQAPGKEREFVAAITQRGVNTYYADSVKGRFTISRDNAKNTVYLQMNRLKPEDTAVYYCNAKRYSYWIYRAYDYWGQGTQVTVSS”, the “polyreactivity (PSR sort gate)” value is given as “low polyreactivity”.

Consider “QVQLVDSGGGLDQAGGSLRLSCAAAGSIFYSYAMGWYSQATGKDSELVADISSDGSTNYADSVKGRFTISRDNAKNTVYVQINSLKPEDTAVYYCAKKPSSARYVTIGFDEWGHGTQVTVSS”, for which the “polyreactivity (PSR sort gate)” value is “low polyreactivity”.

As to “QVQLVESVGGLVQAGGSLRLSCAASGSIFYNYAMGWYRQAPGKERELVAAISSNGGSTYYADSVKGRFTISRDIAKNTVYLQMNSLKPEDTAVYYCAARYWYPYWYRYSAYDYWGQGTQVTVSS”, the “polyreactivity (PSR sort gate)” value is reported as “high polyreactivity”.

Regarding “QVQLVESGGGLVQAGGSLRLSCAASGSIFRKNAMGWYRQAPGKERELVAAISSSGGRTYYADSVKGRFTISRDNAKNTVYLQMNSLKPEDTAVYYCAAVYSKGGSSRISPGDDYWGQGTQVTVSS”, the “polyreactivity (PSR sort gate)” value was “high polyreactivity”.

For “QVQLVESGGGLVQAGGSLRLSCAAYGSIFGGNAMGWYRQAPGKERELVARITDRGGSTDYADSVKGRFTISRDNAKNTVFLHMNSLKREDTAVYYCAKRGDRYEQRPRDYWGQGTQVTVSS”, the “polyreactivity (PSR sort gate)” value is given as “low polyreactivity”.

For the sequence “QVQLVESGGGLVQAGGSLRLTCAASGIIFYPYAMGWYRQAPGKERELVAAISIGGGSTYYADSVKGRFTISRDNAKNTVYLQMNSLKPEDTAVYYCAAGTPYGILGYYYWGQGTQVTVSS”, the “polyreactivity (PSR sort gate)” value is “low polyreactivity”.

As for “QVQLVESGGGLVQAGGSLRLRCAASGRTFTAYTMGLYRQAPGKEREFVASISSGVTYADSVKGRFTISRDNAKITVYLQMNSLKPEDTAVYYCAARLWYVQGYVPYVHHRFDYWGQGTQVTVSS”, the “polyreactivity (PSR sort gate)” value is “low polyreactivity”.

With “QVQLVESGVGLVQAGGSLRLSCAASGFTFQYYAMGWYRQAPGKERELVAAITRGDSTNYADSVKGRFTISRDNAKNTVYLQMNSLKPEDTAVYYCAAGSAPSYWGGWYYERDYWGQGTQVTVSS”, the “polyreactivity (PSR sort gate)” value is listed as “low polyreactivity”.

“QVQLVESGGGLVQAGGSLRLSCAASGFIFYLYAMGWYRQAPGKERELVAAISSSGGGTYYADSVKGRFTISRDNAKNTVYLQMNSLKPEDTAVYYCNVPLSYRSEYDYWGQGTQVTVSS”: the “polyreactivity (PSR sort gate)” value was “high polyreactivity”.

Consider “QVQLVESGGGLVQAGGSLRLSCAASGLIRDGKVMGWYIQAPGKERELVAAINTSGGSTYYADSVKGRFTISRDNAKNTVYLQMNSLKPEDTAVYYCAARYPSDYDYWGQGTQVTVSS”, for which the “polyreactivity (PSR sort gate)” value is recorded as “low polyreactivity”.

On to “QVQLVESGGGLVQAGGSLRLSCAASGGLFTLNAMGWYRQAPGKEREMVAGISWSGDRTYYADSVKGRFTISRDNAKNTVYLQMNSLKPEDTAVYYCAAYDYWGQGTQVTVSS”, for which the “polyreactivity (PSR sort gate)” value is reported as “low polyreactivity”.

As to “QVQLVESGGGLVQAGGTLRLSCAASGSTFRYYAMGWYRQAPGKERELVATITSDGSTNYADSVKGRFTFSRDNAKNTVYLQLNSLKPEDTAVYYCNARCRRYKSSNSWGQGTQVTVSS”, the “polyreactivity (PSR sort gate)” value is “high polyreactivity”.

“QVQLVESGGGLVQAGGSLRISCAASGRIFFIKAMGWYRQAPGKERELVAAIRRDTRTYYADSVKGRFTISRDNAKNTVYLQMNSLKPEDTAVYYCAADDPWHYDFDYWGQGTQVTVSS”: the “polyreactivity (PSR sort gate)” value is reported as “low polyreactivity”.

In the case of “QVQLVESGGGLVQAGGSLRLSCAASGSIFIYYAMGWYRQAPGKEREFVADISYSGDSTYYADSVKGRFTISRDNAKNTVYFQMNSLKPEDTAVYYCAADTWYDAGVYPYDYWGQGTQVTVSS”, the “polyreactivity (PSR sort gate)” value was “high polyreactivity”.

Consider “QVQLVESGGGLVQAGGSLRLSCAASGRTFESYAMGWYRQAAGKERELVAAIRSRGGSTNYADSVKGRFTISRDNAKNTVYLQMNSLKPEDTAVYYCNKDGTWVARAVTYADFDYWGQGTQVTVSS”, for which the “polyreactivity (PSR sort gate)” value is “low polyreactivity”.

Consider “QVQLVESGGGLVQAGGRLRLSCAASGRTFDDYAMGWYRQAPGKERELVAVITSGGRTKYADSVKGRFTISRDNAKNTVYLQMNSLKPEDTAVYYCAAREVHDRYGYWGQGTQVTVSS”, for which the “polyreactivity (PSR sort gate)” value is recorded as “high polyreactivity”.

In the case of “QVQLVESGGGLVQAGGSLRLSCAASGSILEGNAMGWYRQAPGKERELVASISGDGSTNYADSVKGRFTISRDNAKNTVYLQMNSLKPEDTAVYYCAARYGRIHWKANWPEYGYWGQGTQVTVSS”, the “polyreactivity (PSR sort gate)” value is reported as “low polyreactivity”.

Consider “QVQLVESGGGLVQAGGSLRLSCAASGSIFNSYAMGWYRQAPGKERELVAAISSGGGRTYYADSVKGRFTISRDNAKNTVYLQMNSLKPEDTAVYYCNARAVYRFDYWGQGTQVTVSS”, for which the “polyreactivity (PSR sort gate)” value is on record as “high polyreactivity”.

Take “QVQLVESGGGLVQAGGSLRLSCAASGSIFTYNTMGWYRQAPGKERELVAAISSGGRTYYADSVKGRFTISRDNAKNTVYLQMNSLKPEDTAVYYCAARYYFWGQGTQVTVSS”: the “polyreactivity (PSR sort gate)” value was “high polyreactivity”.

“QVQLVESGGGLVQAGGSLRLSCAASGITFGDYDMGWYRPAPGKERELVAAITYDGGTTYYADSVKGRFTISRDNAKNTVYLQMHSLKPEDTAVYYCNADSYRGLYDYWGQGTQVTVSS”: the “polyreactivity (PSR sort gate)” value is listed as “low polyreactivity”.

“QVQLVESGGGLVQAGGSLRLSCAASGRTFYWYTMGWYRQAPGKERELVAGIRSGGYTNYADSVKGRFTISRDNAKNTVYLQMNSLKPEDTAVYYCAAGGYSSAYGVSYGSYYYWGQGTQVTVSS”: the “polyreactivity (PSR sort gate)” value was “low polyreactivity”.

Regarding “QFHHVESGGGLVQAGCSLRLSCGASGLTSAIYVMGLYRQAPGKEREFVADITWNAGSTYYADSVQGRFTISRDNAKNTVYVEMKSLKPEDTAVYYCNAYIVSGFYEYDFWGQGTQVTVSS”, the “polyreactivity (PSR sort gate)” value is on record as “high polyreactivity”.

“QVQLVESGGGLVQAGGSLRLSCAATGSTRYYAMGWYRHAPGKERELVASIASIGGSTSYADSVKGRFTISRDNAKNTVYLQMNSLKPEDTAVYYCATRSLVYSARAAGLIQFDHWGQGTQVTVSS”: the “polyreactivity (PSR sort gate)” value is recorded as “low polyreactivity”.

Consider “QVQLVESGGGLVQAGGSLRLSCAASGFIFDWNAMGWYRQAPGKERELVAAITWGGDGTFYADSVKGRFTISRDNAKNTVYLQMNSLKPEDTAVYYCAADSDSSFWWYYSWGQGTQVTVSS”, for which the “polyreactivity (PSR sort gate)” value is on record as “low polyreactivity”.

Consider “QVQLVESGGGLVHAGGSLRLSCASSGSTFAQYALGWYRPAPGKDREFVAAITRGGGRTYYADSVNGRFTISRDNAKYSVYLQMNSLKPEVTAVYYCNAVYRYYPFDYWGQGTQVTVSS”, for which the “polyreactivity (PSR sort gate)” value is listed as “high polyreactivity”.

On to “QVQLVESGGGLVQAGGSLRLSCAASGRIFRAYAMGWYRQAPGKERELVAAITSGVSTNYADSVKGRFTISRDNAKNTVYLQMNSLKAEDTAVYYCAADIYVIYEYWGQGTQVTVSS”, for which the “polyreactivity (PSR sort gate)” value was “low polyreactivity”.

For “QVQLEESGGGLVQAGGSLRLSCAASGSIIDYYAMGWYRQAPGKERELVADITVTGDGTYYADSVKGRFTISRDNAKNTVYLQMNSLKPEDTAVYYCAADFWLVSFQWDFEYDYWGQGTQVTVSS”, the “polyreactivity (PSR sort gate)” value is given as “low polyreactivity”.

As to “QVQLEESCGGLVQAGGRLRLSCAASGSIFRFNVMGWYRHAPGKERDLVAAITRGDSTNYADSVKGRFTISRDNAKITVYLQMNILIQDDSAVYYCAAGYYYYLRDHDYWGQGTQVTVSS”, the “polyreactivity (PSR sort gate)” value is “low polyreactivity”.

Turning to “QVQLVESGGGLDQAGCSLRLSCAASGRIFYVYDMGWYRQAPGKERELVATITSSGDGTYYADSVKGRFTSSRDNAKNTVYLQMNSLKPEDTAVYYCARRYFVRFVNPPYYYWGHGTQVTVSS”, the “polyreactivity (PSR sort gate)” value is listed as “low polyreactivity”.
